Data on 1 molecule can be found in patent publication US8273855 (JIANGSU NOVAVAC BIO TEC, dated 2012).

The target of assay [1] is T1, Notch1 on OLN-93 cells (rat, UniProt Q07008 19-2531).
T1 construct: whole, on cells; OLN-93 cells carry both Notch1 and Notch2; also called OLN cells
Description: OLN-93 cell adhesion to control substrate. Here is the method: (§1) This was carried out as previously described (Xiao et al, 1996). Briefly, 35 mm tissue culture petri dishes (Becton Dickinson) were coated with methanol solubilized nitrocellulose (Lagenaur and Lemon, 1987) and air-dried under a sterile hood. […] Subsequently, the dishes were washed three times with calcium- and magnesium-free Hank's balanced salt solution (CMF-HBSS) and blocked overnight with 2% heat-inactivated fatty acid-free BSA (Sigma) in CMF-HBSS (this blocking step is skipped in the repulsion test). […] After 0.5 hour (in the adhesion test) or 12 hours (in the repulsion test), the dishes were gently washed three times with CMF-HBSS and the cells were fixed with 2.5% glutaldehyde in CMF-HBSS. […] Cells adhering to the various spots were photographed and counted. The results were analyzed by Student's t test with p<0.05 and p<0.01 being considered significant or highly significant difference, respectively.

For assay [2], the target named is T2, Notch2 on OLN-93 cells (rat, UniProt Q9QW30 26-2471).
T2 construct: whole, on cells; also called OLN cells
T2 sequence (Q9QW30 26-2471): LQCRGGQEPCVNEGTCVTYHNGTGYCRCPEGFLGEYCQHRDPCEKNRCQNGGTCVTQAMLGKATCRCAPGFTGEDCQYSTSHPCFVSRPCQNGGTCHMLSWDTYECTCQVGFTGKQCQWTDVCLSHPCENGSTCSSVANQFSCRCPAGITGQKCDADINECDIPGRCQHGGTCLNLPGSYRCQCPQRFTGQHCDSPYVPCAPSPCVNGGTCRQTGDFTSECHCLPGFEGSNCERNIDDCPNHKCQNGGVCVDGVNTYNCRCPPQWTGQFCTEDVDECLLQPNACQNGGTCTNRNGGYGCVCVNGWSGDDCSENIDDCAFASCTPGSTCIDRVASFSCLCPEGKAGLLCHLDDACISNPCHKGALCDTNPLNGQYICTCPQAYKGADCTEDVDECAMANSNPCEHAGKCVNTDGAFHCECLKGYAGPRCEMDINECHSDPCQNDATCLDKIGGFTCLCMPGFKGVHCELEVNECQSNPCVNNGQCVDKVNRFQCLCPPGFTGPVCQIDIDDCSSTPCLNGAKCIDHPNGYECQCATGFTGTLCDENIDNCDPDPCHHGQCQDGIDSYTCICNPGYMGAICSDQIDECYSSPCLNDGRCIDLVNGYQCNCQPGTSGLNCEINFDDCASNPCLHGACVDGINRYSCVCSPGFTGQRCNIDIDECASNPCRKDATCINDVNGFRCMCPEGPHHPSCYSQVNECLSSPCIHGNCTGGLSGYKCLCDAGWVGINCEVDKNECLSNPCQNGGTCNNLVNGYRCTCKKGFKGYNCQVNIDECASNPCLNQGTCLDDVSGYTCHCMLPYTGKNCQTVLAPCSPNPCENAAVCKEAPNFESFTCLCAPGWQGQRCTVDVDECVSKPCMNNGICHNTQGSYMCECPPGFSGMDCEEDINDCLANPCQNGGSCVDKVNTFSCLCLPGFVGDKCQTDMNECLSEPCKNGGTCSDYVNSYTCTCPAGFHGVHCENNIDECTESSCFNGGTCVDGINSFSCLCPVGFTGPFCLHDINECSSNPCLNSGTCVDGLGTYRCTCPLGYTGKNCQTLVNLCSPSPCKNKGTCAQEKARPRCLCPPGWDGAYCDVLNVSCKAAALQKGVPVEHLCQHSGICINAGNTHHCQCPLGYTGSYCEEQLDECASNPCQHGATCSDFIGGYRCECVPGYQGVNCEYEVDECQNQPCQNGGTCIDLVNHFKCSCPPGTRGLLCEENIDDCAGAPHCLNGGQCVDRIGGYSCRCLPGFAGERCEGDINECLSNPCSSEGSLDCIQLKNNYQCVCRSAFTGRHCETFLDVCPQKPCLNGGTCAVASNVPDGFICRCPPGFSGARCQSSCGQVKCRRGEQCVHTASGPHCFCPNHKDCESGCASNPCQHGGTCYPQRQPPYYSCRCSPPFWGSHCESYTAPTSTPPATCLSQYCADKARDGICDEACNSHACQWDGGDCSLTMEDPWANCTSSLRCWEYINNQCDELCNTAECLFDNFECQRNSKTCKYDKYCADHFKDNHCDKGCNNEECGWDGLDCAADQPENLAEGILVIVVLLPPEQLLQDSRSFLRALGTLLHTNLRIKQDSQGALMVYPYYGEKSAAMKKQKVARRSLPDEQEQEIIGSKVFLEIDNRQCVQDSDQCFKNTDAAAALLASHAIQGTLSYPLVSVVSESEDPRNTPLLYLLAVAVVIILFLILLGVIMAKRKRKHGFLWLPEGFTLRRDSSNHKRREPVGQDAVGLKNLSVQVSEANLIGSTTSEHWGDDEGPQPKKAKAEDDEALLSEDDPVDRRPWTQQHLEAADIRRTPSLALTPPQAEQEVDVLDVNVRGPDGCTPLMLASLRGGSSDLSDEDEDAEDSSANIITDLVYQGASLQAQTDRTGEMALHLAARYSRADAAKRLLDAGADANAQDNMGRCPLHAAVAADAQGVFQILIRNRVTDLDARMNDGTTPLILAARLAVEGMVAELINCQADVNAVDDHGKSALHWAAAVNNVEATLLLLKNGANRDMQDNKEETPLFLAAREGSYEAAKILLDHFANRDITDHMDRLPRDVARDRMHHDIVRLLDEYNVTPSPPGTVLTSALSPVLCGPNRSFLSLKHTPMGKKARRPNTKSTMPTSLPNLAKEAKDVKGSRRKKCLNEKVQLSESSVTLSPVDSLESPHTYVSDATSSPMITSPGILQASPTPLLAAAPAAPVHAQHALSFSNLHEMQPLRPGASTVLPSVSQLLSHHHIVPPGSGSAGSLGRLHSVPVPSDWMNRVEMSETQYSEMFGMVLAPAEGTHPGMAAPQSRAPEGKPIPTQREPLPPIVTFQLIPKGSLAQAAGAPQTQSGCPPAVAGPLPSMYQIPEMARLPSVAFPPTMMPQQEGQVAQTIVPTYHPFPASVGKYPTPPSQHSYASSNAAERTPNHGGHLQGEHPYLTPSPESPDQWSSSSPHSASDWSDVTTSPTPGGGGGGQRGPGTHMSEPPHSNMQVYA
In words: OLN-93 cell adhesion to control substrate. How it is done:
as §1

T1 sequence (Q07008 19-2531): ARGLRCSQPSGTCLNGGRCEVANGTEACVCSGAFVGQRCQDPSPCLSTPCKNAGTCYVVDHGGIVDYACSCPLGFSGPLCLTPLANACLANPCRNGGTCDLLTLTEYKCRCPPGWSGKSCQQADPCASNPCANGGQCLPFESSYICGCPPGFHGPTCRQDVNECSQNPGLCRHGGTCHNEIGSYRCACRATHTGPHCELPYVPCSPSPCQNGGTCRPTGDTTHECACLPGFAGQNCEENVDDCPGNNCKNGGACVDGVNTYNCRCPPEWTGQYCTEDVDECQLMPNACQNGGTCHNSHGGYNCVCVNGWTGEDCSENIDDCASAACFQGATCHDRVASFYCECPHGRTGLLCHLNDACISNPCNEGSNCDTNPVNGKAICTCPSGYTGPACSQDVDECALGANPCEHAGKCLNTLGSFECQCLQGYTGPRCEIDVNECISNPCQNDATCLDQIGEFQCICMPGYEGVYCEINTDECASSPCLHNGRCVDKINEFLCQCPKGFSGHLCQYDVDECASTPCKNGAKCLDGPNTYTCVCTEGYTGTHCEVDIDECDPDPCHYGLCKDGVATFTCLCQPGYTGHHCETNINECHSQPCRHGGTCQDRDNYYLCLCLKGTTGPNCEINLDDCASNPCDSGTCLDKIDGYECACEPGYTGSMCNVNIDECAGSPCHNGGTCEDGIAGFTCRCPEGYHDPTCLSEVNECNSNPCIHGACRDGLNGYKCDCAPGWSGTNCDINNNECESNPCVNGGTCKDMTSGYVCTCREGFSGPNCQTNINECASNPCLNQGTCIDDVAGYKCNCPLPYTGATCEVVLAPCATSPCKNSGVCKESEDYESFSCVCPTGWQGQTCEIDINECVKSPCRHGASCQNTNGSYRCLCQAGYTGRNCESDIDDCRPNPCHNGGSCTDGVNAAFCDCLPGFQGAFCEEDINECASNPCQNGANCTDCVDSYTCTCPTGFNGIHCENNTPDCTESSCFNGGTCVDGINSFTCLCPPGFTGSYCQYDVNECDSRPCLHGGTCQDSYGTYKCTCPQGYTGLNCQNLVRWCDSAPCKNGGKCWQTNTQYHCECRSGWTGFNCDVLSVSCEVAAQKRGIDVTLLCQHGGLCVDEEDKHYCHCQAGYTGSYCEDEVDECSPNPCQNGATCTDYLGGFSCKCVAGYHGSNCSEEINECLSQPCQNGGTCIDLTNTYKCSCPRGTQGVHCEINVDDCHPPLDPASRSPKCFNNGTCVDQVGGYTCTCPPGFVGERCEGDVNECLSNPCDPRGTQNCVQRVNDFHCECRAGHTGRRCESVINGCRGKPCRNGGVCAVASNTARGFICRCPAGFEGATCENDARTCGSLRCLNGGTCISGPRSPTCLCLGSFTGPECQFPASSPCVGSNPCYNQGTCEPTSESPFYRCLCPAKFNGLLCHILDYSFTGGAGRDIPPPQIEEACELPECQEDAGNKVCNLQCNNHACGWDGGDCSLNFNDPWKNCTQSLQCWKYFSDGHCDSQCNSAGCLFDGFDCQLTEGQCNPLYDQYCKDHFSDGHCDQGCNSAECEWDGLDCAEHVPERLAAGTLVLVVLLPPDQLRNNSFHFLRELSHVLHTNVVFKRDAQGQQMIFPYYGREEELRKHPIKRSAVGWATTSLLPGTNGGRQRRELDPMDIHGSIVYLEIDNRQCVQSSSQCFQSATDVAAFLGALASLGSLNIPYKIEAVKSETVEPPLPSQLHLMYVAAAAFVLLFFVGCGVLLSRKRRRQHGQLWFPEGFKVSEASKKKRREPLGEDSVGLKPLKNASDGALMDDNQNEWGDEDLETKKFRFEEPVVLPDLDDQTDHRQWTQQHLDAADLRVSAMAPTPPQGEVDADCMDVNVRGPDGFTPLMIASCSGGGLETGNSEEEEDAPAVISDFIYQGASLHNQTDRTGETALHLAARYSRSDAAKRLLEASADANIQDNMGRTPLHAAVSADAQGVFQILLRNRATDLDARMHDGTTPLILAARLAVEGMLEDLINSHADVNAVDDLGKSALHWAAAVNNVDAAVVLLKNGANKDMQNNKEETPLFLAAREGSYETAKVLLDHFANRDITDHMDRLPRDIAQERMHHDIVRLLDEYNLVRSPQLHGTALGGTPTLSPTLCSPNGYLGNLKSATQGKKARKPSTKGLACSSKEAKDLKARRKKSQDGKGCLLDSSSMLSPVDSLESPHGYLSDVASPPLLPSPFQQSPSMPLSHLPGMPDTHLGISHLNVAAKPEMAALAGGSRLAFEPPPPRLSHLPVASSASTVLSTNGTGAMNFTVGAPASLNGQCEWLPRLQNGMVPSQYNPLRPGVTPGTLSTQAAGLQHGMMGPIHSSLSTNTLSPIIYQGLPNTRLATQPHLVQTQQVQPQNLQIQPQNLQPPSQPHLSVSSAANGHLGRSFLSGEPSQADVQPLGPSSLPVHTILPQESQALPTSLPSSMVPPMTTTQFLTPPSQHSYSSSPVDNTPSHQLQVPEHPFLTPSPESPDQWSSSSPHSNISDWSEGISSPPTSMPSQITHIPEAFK

B1: CHL1-Fc (Fc fusion, UniProt P70232 26-1083, looked up)
chain: EIPLSVQQVPTIVKQSYVQVAFPFDEYFQIECEAKGNPEPIFSWTKDDKPFDLSDPRIIAANNSGTFKIPNEGHISHFQGKYRCFASNRLGTAVSEEIEFIVPGVPKFPKEKIEPIDVEEGDSIVLPCNPPKGLPPLHIYWMNIELEHIEQDERVYMSQRGDLYFANVEENDSRNDYCCFAAFPKLRTIVQKMPMKLTVNSSNSIKQRKPKLLLPPAQMGSLSAKTVLKGDTLLLECFAEGLPTPHIQWSKPGSELPEGRATIEVHEKTLKIENISYQDRGNYRCTANNLLGKASHDFHVTVEEPPRWKKKPQSAVYSTGSSGILLCEAEGEPQPTIKWRLNGLPIEKHPFPGDFMFPREISFTNLLPNHTGVYQCEASNIHGTILANANIDVIDVIPLIKTKNEENYATVVGYSAFLHCEYFASPKATVVWEVADETHPLEGDRYHTHENGTLEIYRTTEEDAGSYSCWVDNAMGKAVITANLDIRNATKLRVSPKNPRIPKSHVLELYCESQCDSHLKHSLKLSWSKDGEAFEMNGTEDGRIVIDGAYLTISNITAEDQGVYSCSAQTSLDSTSEKTQVTVLGVPDPPGNLHLSERQNRSVRLSWEAGDDHNSKISEYIVEFEGNREEPGKWEELTRVQGEETDVVLSLAPYVRYQFRVTAVNEVGRSHASLPSDHHETPPAAPDKNPQNIRVQASQPKEMIIKWEPLKSMEQNGPGLEYKVSWKPQGAPEEWEEEIVTNHTLRVMTPTVYAPYDVKVQAINQLGSSPDPQPVTLYSGEDYPSTAPVIQRVDVMNSTLVKVTWSSIPKETVHGLLRGYQINWWKTKSLLDGRTHPKEVNILRFSGQRNSGMVPSLDPFSEFHLTVLAYNSKGAGPESEPYIFQTPEGVPEQPSFLKVIKVDKDTATLSWGLPKKLNGNLTGYLLQYQIINDTYELGELNEINVTTPSKSSWHLSNLNSTTKYKFYLRACTSRGCGKPISEEGATLGEGSKGIRKITEGVNVTQKIHPVEVLVPGAEHIVHLMTKNWGDNDSIFQDVIETRGREYAGLYDDISTQGW
notes: Control substrate; also called CHL-Fc; not shown: human IgG Fc
Consider B1, for which the binding result in assay [1] and in assay [2] was “no binding (tested: 2.5 µl of 12 µM CHL1-Fc spotted)” in each case.
